Biological target: N-terminal GFP-tagged tail-less hFcRn (ssECTM: signal sequence-GFP-ectodomain-transmembrane domain) stably expressed on HEK293 cells (human) [GFP: P42212]
Assay: flow cytometry on ssECTM cells at pH 7.5, 50 ug/ml hIgG-AF647, no competitor

**Q.** human IgG (hIgG) (antibody) was tested. Which MFI did it give?
**A.** 6 MFI

From patent US20100266530A1
